The target of the assay is T1, Flag.RUNX2(P409A) (Homo sapiens (Human), UniProt Q13950 20-521).
T1 construct: also called mutant RUNX2; RUNX2 mutant
Kind of assay: co-immunoprecipitation, Flag.RUNX2(P409A) and HA.YAP. How it is done: Mutation of the first proline to an alanine completely abolished transcriptional activity. We reasoned that if YAP was directly interacting with RUNX2, a mutation of the first proline to an alanine in RUNX2 would reduce YAP binding and not affect the repression of the p21 CIP1 promoter. The mutant RUNX2, designated RUNX2 (P409A), was generated and its ability to interact with YAP was assessed. […] We expected that the mutant RUNX2 would retain its ability to bind DNA since the P409A mutation was downstream of the Runt DNA binding domain (amino acids 50-177). To measure RUNX2(P409A) DNA binding, DNA precipitation assays using the wild type 20-mer, double-stranded oligonucleotide from the p21 CIP1 promoter site A were performed using nuclear lysates from HEK293 cells transfected with two mutant Flag.RUNX2(P409A) clones. Both RUNX2(P409A) mutant clones retained DNA-binding activity. After verification of DNA binding, the ability of the RUNX2 mutant protein to repress p21CIP1 promoter activity was determined. NIH3T3 cells were transfected with either RUNX2 or RUNX2(P409A) and luciferase activity was measured. Both mutant RUNX2(P409A) clones and the wild-type RUNX2 were strong repressors of the p21CIP1 promoter. However, HA.YAP was unable to relieve p21 CIP1 promoter repression by the mutant Flag.RUNX2(P409A). […]

T1 sequence (Q13950 other isoform, or with tags, fused parts or gaps P409A P409A): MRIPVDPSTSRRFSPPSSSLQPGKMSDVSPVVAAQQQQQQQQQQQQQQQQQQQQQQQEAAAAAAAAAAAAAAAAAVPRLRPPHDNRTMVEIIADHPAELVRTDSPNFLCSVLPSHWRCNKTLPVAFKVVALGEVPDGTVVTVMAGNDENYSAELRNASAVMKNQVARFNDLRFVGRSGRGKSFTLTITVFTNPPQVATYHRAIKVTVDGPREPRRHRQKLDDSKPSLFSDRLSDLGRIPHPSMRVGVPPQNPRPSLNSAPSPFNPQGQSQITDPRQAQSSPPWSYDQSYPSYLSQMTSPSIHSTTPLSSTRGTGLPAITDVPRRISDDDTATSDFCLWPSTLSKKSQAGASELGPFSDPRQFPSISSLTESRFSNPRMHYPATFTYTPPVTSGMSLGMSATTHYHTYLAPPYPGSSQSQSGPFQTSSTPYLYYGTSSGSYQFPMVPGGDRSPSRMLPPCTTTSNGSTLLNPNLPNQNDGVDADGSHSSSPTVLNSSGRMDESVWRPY

B1: HA.YAP (other, not shown: small tags and cut ends)
chain: MDPGQQPPPQPAPQGQGQPPSQPPQGQGPPSGPGQPAPAATQAAPQAPPAGHQIVHVRGDSETDLEALFNAVMNPKTANVPQTVPMRLRKLPDSFFKPPEPKSHSRQASTDAGTAGALTPQHVRAHSSPASLQLGAVSPGTLTPTGVVSGPAATPTAQHLRQSSFEIPDDVPLPAGWEMAKTSSGQRYFLNHIDQTTTWQDPRKAMLSQMNVTAPTSPPVQQNMMNSASAMNQRISQSAPVKQPPPLAPQSPQGGVMGGSNSNQQQQMRLQQLQMEKERLRLKQQELLRQVRPQELALRSQLPTLEQDGGTQNPVSSPGMSQELRTMTTNSSDPFLNSGTYHSRDESTDSGLSMSSYSVPRTPDDFLNSVDEMDTGDTINQSTLPSQQNRFPDYLEAIPGTNVDLGTLEGDGMNIEGEELMPSLQEALSSDILNDMESVLAATKLDKESFLTWL
notes: Expressed in HEK293 cells and assayed in nuclear lysates; also called HA-tagged YAP; YAP65
Regarding B1, the binding result was “no binding”.

The values above are taken from patent US8084434 (UNIVERSITY OF MARYLAND, dated 2011).
